{
  "source": "the DeepSol protein solubility set",
  "data": [
    {"test": "soluble on expression in E. coli; label from the status in PepcDB or PDB records", "values": [
      {"sequence": "MGSDKIHHHHHHMEELREAFEEGKPVILIDRNRENEADFVFPAQLITEDVVSFFVTYGKGLFCVTADEEDLLKRGFVKLSSNYGANYFVPVDWGTGTGISALERAETCRKLAEGRYFHEFRYPGHVTVIGGIGFQRRKGHTEASLEISELAGFSRHAVIVEILDEKGNSHNLDYVLKLSEKFSLPVLEMDDVWREFVKRKLLMKKKAEATLPTDFGVFKVVSFENHLDGKEHFAIVKEPLEDPVAVRIHSECVTGDVLSSLRCDCGSQLANFLRYMSAHGGILIYLRQEGRGIGLSNKIAAYSLQDKGLDTVEANRVLGFSEDERDYAPAAQILKALGIERVLLFTNNQRKTVGLEKYGIEVVETKRLYGRVTPHNRFYLSTKMKKLGHELEEIFREVNS", "soluble on expression in E. coli": "not soluble"},
      {"sequence": "MNSRQMYEKIKERLVAHPHWTFRFDAKQDAMRVEDRRTKKGVTISLPGVIAKWHEQKDEAVREVVYYVEQTLKTMEEDAALSGNERNIYPVIRSASFPTETKEGVPLLFDDHTAETRIYYALDLGKTYRLIDERMLEKDKWSRERVKEIARFNVRSLPTPVKEARVADNVFYFVNPNDGYDASRILNESFLADMRARVEGTMAVAVPHQDVLVIADVRNDIGYDVLAQMTMSFFAGGRVPITALSFLYENGKLEPIFILGKKRRT", "soluble on expression in E. coli": "not soluble"},
      {"sequence": "VTPVTTFPLVDAILAGRDRNLDGVILIAAQHLLQTTHAMLRSLFRVGLDPRNVAVIGKCYSTHPGVVDAMRADGIYVDDCSDAYAPHESFDTQYTRHVERFFAESWARLTAGRTARVVLLDDGGSLLAVAGAMLDASADVIGIEQTSAGYAKIVGCALGFPVINIARSSAKLLYESPIIAARVTQTAFERTAGIDSSAAILITGAGAIGTALADVLRPLHDRVDVYDTRSGCMTPIDLPNAIGGYDVIIGATGATSVPASMHELLRPGVLLMSASSSDREFDAVALRRRTTPNPDCHADLRVADGSVDATLLNSGFPVNFDGSPMCGDASMALTMALLAAAVLYASVAVADEMSSDHPHLGLIDQGDIVASFLNIDVPLQALSRLPLLSIDGYRRLQVRSGYTLFRQGERADHFFVIESGELEALVDGKVILRLGAGDHFGEACLLGGMRRIATVRACEPSVLWELDGKAFGDALHGDAAMREIAYGVARTRLMHAGASESLMV", "soluble on expression in E. coli": "not soluble"},
      {"sequence": "MAPSKSKEKKEKAKTSRRKSGSQTKKDTTSTVSEGKSPTEVADQLLKAKSRPQMYDLLKGHAAFNVPEFVKNLPVNVRLPIPIRDNRRVLCGSDEEFFPGQYVRMEGAEYIIVQAPTKKSSKLIWRVILKDHIRILVCLCHDEQMSGSDDGKCYTYFPTELEQKMEAELMKGTLSIVCKAREGLSMGATKYELELTDSEVVIDKNSDDPNASNYKSHRLIVFHMNTWSGQKPTSGNALEQAQNVALFFREVKKFEMDILRKSMENFVPPVMLQSFDGINRASTGWVALMLLRDVEKRECFDVPSLIKAIMKFRNGSISTYYQFCFCMAVCLNIGKHTNWCANDCSTALTDLMEKFGNRKLNELGNLAV", "soluble on expression in E. coli": "not soluble"},
      {"sequence": "MTAQKMSAQEIIAFIGNAEKKTNVKVTFEGELATAVPSSVTKLGNVLFGDWKDIEPLLANLTENKDYVVEQDGRNSAVPLLDK", "soluble on expression in E. coli": "not soluble"},
      {"sequence": "MAHHHHHHMDGGGRVAGTGVQLKPATVHGSVECVEFDKLSGSSNLFALQTMPVYFGASRVPWRLLDVGVKERKPASESGSAGAAMWLALVRFPPRGACPMPAAMGGWGVR", "soluble on expression in E. coli": "not soluble"},
      {"sequence": "MKRYGNLYQEIINFENILIASRQAQKSKRFRDNVLDFNYHLETELIKLQKHLTDKTYQPGAYRTFRLTNPKSRLISAAPYRDRVVHHALCNIIVPIFERAFVADSYANRIGFGTHRALKKFTHSARNSPYVLQCDIRKYFPSIDHIILKELIRRKIKCPDTLWLIDTIIDNSNEQETVIDYFAGDDLLSPITRRKGLPIGNLTSQFFANIYLNGFDKIIKEELKISKYVRYVDDFALFSDDRELLADARLAIEAYLAELRLKIHPIKSQLFETKIGATFLGFRIFSHKIRVRNSNLHQARRRLKRLKTDYAQGKLELNQVTQSMRSWIAHLEHGDTWRLRKQIFTSLHFRRKLEHHHHHH", "soluble on expression in E. coli": "soluble"},
      {"sequence": "MSLKITRITVYQIALPLEHPYWLSGGRLKFEVLDATLVKIETGTGLTGWGEGTPWGHTYVPAHGPGIRAGIETMAPFIIGLDPRRGLEIERAMDLALPGHLYAKSPIDMACWDIAGQAAGLSIADLMGGGSRTPRPIASSVGAKTVEETRAVIERYRQRGYVAHSVKIGGDIERDIARVRDVESLRRDGEIVLYDVNRGWTRQQALRVMSATEDLNVMFEQPCESLDDIAAIAGKYAAPVSVDESLVTLQDAARIARDGLAEVFGIKLNRVGGLTKAARMRDIALAHGIDMFVMATGGSVLADAEALHLAATIPDANCHAVWACQDMITLDIAGGRGPRNIDGHLHLTEAPGLGVHPDEDVLGDPVGVYGEGHHHHHH", "soluble on expression in E. coli": "not soluble"},
      {"sequence": "MGSDKIHHHHHHMTKNARQTALDVLNDIFGNDAYANISLDRNLRDSELSTVDKAFVTALVYGVVSKKDLLEWHITPFLKKEPKPWAKMLLLLTVYQILFMDKVPTSAAVDEAVKIAKRRDGQATANFINAVLRNFMRSEHRNEEPKDWETKYSMPKLLLDKMVRQFGGKRTGEILESLEKPSHVSLRKIDPTVEISGTRASLLTESALIADSGNFAMTEEFQSGRITIQDETSQLVAPQLDLEGTEEVLDACAAPGGKSTHMAQYLTIGHITALDLYDHKLDLINQNAERQHVADKITTQKADATMIFEEFGSDKFDRILVDAPCSGIGLIRRKPDIRYRKESSDFVDLQKIQLEILNSASKSLKKSGIMVYSTCTIFDEENFDVVRQFLESHPNFEQVEISSDKADMIKEGCIFITPEMYHTDGFFIAKFKKIGE", "soluble on expression in E. coli": "not soluble"},
      {"sequence": "MTQHPFISRVAVRNYKSIGYCDVNLRPLTYLVGHNGAGKSNFMDALHFVCDALSYSLDSALNERGGINEVRRRSGGHPTHFALRVEFVMQSGQAGRYGFVIGALKNGGYEVQREECVVAGIGKGPFFRIEKGKLRDSSETTFPSVTADRLALVAASGLTAFRPVFDALTAMGFYNLNPKLMRELQKPQDGRLLRPAGENIASVIGHLEKVAPAQMALIQEYLHSVAPMVHGVERKPIGPMETLEFRQDMAGSKHPWRFLAQNMSDGTLRALGVLSALLQGNVDYSPTLIGIEEPETALHPAASAALREALVRASETTQVLVTSHSPDLLDDHSIDADAVLAVVSEAGETKVAPLDEGSRQVMRDHLFSAGELLRMNQLAPDRASLEQQDKAASGDLFGETESVLEHHHHHH", "soluble on expression in E. coli": "soluble"},
      {"sequence": "ENYLSIEKRLYENLAQESSHSASRLQFLLEHAQANTQGLSDFIGLLADKDDINNPEKLKTVLTNRIQRNPDFFGSAIAFKPNTFPNKKLFSPYVYRSGSGFNYLDIGADGYDYTDGNWDWWSKAINQVGGYWSKAYFDEGAGNVLMITYAVPFGVQPDYFGVTTVDLALDRLPEQLGIAPSRLVVLDDQGRLIFHSDKEKVLAASSSGWLDKQNIKNIAFATLLNDGQAGQASFVDDKGTVYLASVAEVAKLKWRVVVMVPKHELFASLLDDIA", "soluble on expression in E. coli": "soluble"},
      {"sequence": "MSLIYFETERLIARDYLERDYLPFSQMNADEEVMKYFPARLTQVESNALLDRNQKELTSLGYGLFAIEVKSTNEFIGFTGLHEATFEAEFTPCIEIGWRLKRSAWNQGFATEAALGVLAFAKGITAINEIYSFTATCNKPSEKVMRKIHLTKIADFEHPALINGNPLKPHVLYKAEGHHHHHH", "soluble on expression in E. coli": "not soluble"},
      {"sequence": "MGSDKIHHHHHHMIKVNRYEIFLDFSFQTGDYKGYEKIEMESDEETVVLDAVGLKIVKAKVNGKEIEFSQDESRVNVKSGSFSGILEVEFEGKVTERKLVGIYKASYKDGYVISTQFEATHARDFIPCFDHPAMKARFKLTVRVDKGLKVISNMPVVREKEENGKVVYEFDETPKMSTYLLYLGIGNFEEIRDEGKIPTIIVATIPGKVQKGRFSMQISRNSIEFYEKYFEIPYQLPKVHLIAIPEFAYGAMENWGAITFRETALLADDSSSVYQKFRVAEVVAHELAHQWFGNLVTLKWWDDLWLNESFATFMSHKAISQLFPSWNFWDYFVLNQTSRALEKDSVSTTHPIEAHVRDPNEVEQMFDDISYGKGASILRMIEAYVGEENFRRGVVNYLKKFSYSNAQGSDLWNSISEVYGSDISPIMADWITKPGYPMVRVSVSGKRVSLEQERFSLIGNVENLLYKIPLTMEVNGKVVTHLLDKERDTMVFEEDVKSLKVNVNRTGFYRVFYYNNSDLVFNSNLSELDKWGIINDYWAFLLAGKIGFKEYERVISKFFNDKDFLPVNELSNELFTLHAINPDKYQGIAKEFHRIQLKNWRNSKDELGRLTYSNILYRLAAIDDEFSLGLSELFRFYGSLDSDTRQGVAVAYAITYEDNSVDELLERFRKETFDEEKLRYLTAMLFFRKPYLVGNTLSLILSGEIKKQDIPLTLSTAAYNPYAKSAVLNWIKMHINFMREAYKGTGILGRRLAEVIPLIGIGAERETEQFFSNLNMPEAERGIGTGLELLKAYSRLK", "soluble on expression in E. coli": "not soluble"},
      {"sequence": "GAKQVDVHDPVMTREGDTWYLFSTGPGITIYSSKDRVNWRYSDRAFATEPTWAKRVSPSFDGHLWAPDIYQHKGLFYLYYSVSAFGKNTSAIGVTVNKTLNPASPDYRWEDKGIVIESVPQRDLWNAIAPAIIADDHGQVWMSFGSFWGGLKLFKLNDDLTRPAEPQEWHSIAKLERSVLMDDSQAGSAQIEAPFILRKGDYYYLFASWGLCCRKGDSTYHLVVGRSKQVTGPYLDKTGRDMNQGGGSLLIKGNKRWVGLGHNSAYTWDGKDYLVLHAYEAADNYLQKLKILNLHWDGEGWPQVDEKELDSYISQRLK", "soluble on expression in E. coli": "soluble"},
      {"sequence": "SNAMNLNQLDIIVSNVPQVCADLEHILDKKADYANDGFAQFTIGSHCLMLSQNHLVPLENFQSGIIIHIEVEDVDQNYKRLNELGIKVLHGPTVTDWGTESLLVQGPAGLVLDFYRMK", "soluble on expression in E. coli": "soluble"},
      {"sequence": "MNEKKERIIKTSIRLFAKKGFAATTIQEIASECGISKGAFYLHFKSKEALLLSACEYYIGMSMNKMKNIEEDLAGKPPKEVLKKQIGAQFEDFRDHKDFIVLLLTENIIPENQEIKQYFYKVTMETDKLYRNALLVSYGEGIERYVADLSIMARGIVHSYMNVMVFNGELNIDAEEISAFIIERLDDLVQGLSRSALNPIVSKDIFNPMPAGKDQLLEDIQKVKENSTLPEDITVSLDVIEEELTQDKPRKPIIKGMLSNLAGTNDKEVERLRALILSLSQFDHKKSSL", "soluble on expression in E. coli": "not soluble"},
      {"sequence": "MDIPQDSYDLVVVGGGTSGVFAAISAARRGLRVALVEASGMLGGTLTQVTLGGICGAWTGTAHTQVVHGLFDEFVHAMRKAQACDGLYSYGHVTALPYEPVKVRYLLDQLLPPNVTAFFHSRLFAVDMEGERIARVHLAGVEGPFSLAARAYVDATGNASLVGLCATPLRRGENGTVQAASSMFRVIGADVDPRVRDVRTEIRLAIEKHNASGQAEAFKRSAVAVYVHPDQRLLHFNATRVYFESTADDALAAALDMSRVETEARKESFRLVELLKREVDGFANIEIVDLGSSVGVRDSRNIVNDHPLTEAMVRDGDKPANSVAYSAWPIEFHGSNTQTHWEPLEGDRYYGIPYESCLPQGIQNALVIGRAISSTPLAQASCRVTAPCIQMGESAGIAAHELVASSSRTAFSELASMKFILEHHHHHH", "soluble on expression in E. coli": "soluble"},
      {"sequence": "MDGDQVKGILKSGNNSAQFSLKAAKFDEVNILATFHPAGKDYGHMIIDEPKTPFVFEEDLPKELDTNALIEKLRHTSKSEMPAFGIEGDSEESSADEDFPESVEEKVRRMEFERRRKVHYKEFYSVPLARRLIADEFAELTSSEFNIHCEGGMESCEACSENNQLDGEASNLTQTKYSYSESQSEYRISDHSEPEPGFSPSHHCYQKLKAELFSKAEPEELASLTHLHRMPSVNDDEPSREPRVPYPSVVPTQTQNLHEHKSSLKITSEKPTPARICKSNPDNRPGTSKKETRLEHHHHHH", "soluble on expression in E. coli": "not soluble"},
      {"sequence": "SNAIIAGETSIPSQGENMPAYHARPKNADGPLPIVIVVQEIFGVHEHIRDLCRRLAQEGYLAIAPELYFRQGDPNEYHDIPTLFKELVSKVPDAQVLADLDHVASWAARHGGDAHRLLITGFCWGGRITWLYAAHNPQLKAAVAWYGKLVGEKSLNSPKHPVDIAVDLNAPVLGLYGAKDASIPQDTVETMRQALRAANATAEIVVYPEADHAFNADYRASYHEESAKDGWQRMLAWFAQY", "soluble on expression in E. coli": "soluble"}
    ]}
  ]
}
